Our source for the Kd values is article PMC7806720, “Restoration of the reduced CLSP activity alleviates memory impairment in Alzheimer disease” (Translational Psychiatry, 2021).

In assay [1] the target is recombinant apolipoprotein E4 (UniProt P02649). Kind of assay: plate binding assay with HiBiT luminescence (Nano-Glo HiBiT Extracellular Detection System); ApoE4 or adiponectin coated on 96-well plates (20 pM in 50 mM carbonate buffer pH 9.6, overnight 4 °C), blocked with 1% skim milk in PBS; CLSP-HiBiT in PBS added, overnight 4 °C; washed with PBS with 0.1% NP-40; in duplicate. (HiBiT is a short tag that completes a luciferase, so light tracks the accessible tagged protein.)

Another assay addresses T1, recombinant adiponectin (UniProt Q15848 19-244).
T1 construct: adiponectin; also called ADN; source: recombinant
T1 sequence (looked up): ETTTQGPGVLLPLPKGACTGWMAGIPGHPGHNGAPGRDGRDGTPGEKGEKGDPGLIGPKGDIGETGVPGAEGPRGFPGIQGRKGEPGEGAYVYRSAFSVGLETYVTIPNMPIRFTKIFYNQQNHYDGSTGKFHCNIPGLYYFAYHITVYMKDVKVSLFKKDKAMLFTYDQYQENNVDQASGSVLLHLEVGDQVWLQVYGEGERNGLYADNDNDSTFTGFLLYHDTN
The description is as above. Particulars: both partners purified.

B1: CLSP-HiBiT (natural protein, human, UniProt Q9NZT1 1-146, looked up)
chain: MAGELTPEEEAQYKKAFSAVDTDGNGTINAQELGAALKATGKNLSEAQLRKLISEVDSDGDGEISFQEFLTAAKKARAGLEDLQVAFRAFDQDGDGHITVDELRRAMAGLGQPLPQEELDAMIREADVDQDGRVNYEEFARMLAQE
notes: calmodulin-like skin protein (CLSP); also called recombinant CLSP-HiBiT; source: recombinant
Regarding B1, the Kd (commonly a measure of binding affinity in units of concentration) in assay [1] was found to be 8.8 pM; in the assay with recombinant adiponectin, 7.8 pM.
